# From paper PMC8809985 (2021)
# B1: Haidalimumab (antibody, V domains shown)
# VH: EVQLVESGGGLVQPGGSLRLSCAASGFPFSNHWMNWVRQAPGKGLEWVGEIRSKSMNSATHYAESVKGRFTISRDDSKNSLYLQMNSLKTEDTAVYYCARNYYGSTYDHWGQGTLVTVSS
# VL: EIVLTQSPDFQSVTPKEKVTITCRASQFVGYSIHWYQQKPDQSPKLLIKYASESRSGVPSRFSGSGSGTDFTLTINSLEAEDAATYYCQQSHSWHFTFGQGTKLEIK
# Key:
# [1] = biological target: T1, recombinant human tumor necrosis factor alpha (human, UniProt P01375 77-233); assay: BLI
# [2] = biological target: T1, recombinant human tumor necrosis factor …; assay: BLI; remark: listed apart in the source
# T1 sequence (P01375 77-233): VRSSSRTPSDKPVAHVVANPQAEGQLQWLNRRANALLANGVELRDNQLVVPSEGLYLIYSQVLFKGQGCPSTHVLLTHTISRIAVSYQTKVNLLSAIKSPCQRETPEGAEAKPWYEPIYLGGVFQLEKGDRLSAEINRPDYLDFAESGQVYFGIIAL
binder,measurement,setting,value
B1,koff,[1],0.00023 s⁻¹
same,Kd,[2],0.774 nM
